Where “and” joins values, the source holds several entries; their conditions need not be identical. Equal values may be shown once. Blank lines part the entries; values can stand above or below the substance they belong to.
How the values were obtained:
[1] = molecular target: extracellular domain of human LEPR, GPI-anchored, on HEK293/hLEPR-GPI cells (human) (UniProt P48357); test: FACS, secondary antibody alone on HEK293/hLEPR-GPI cells, 1 µM Leptin
[2] = molecular target: full length human GP130 (L2V natural variant) on HEK293/Stat3-luc/gp130-2X Sort cells (human) (UniProt P40189); test: FACS, secondary antibody alone on HEK293/gp130 2X Sort cells
[3] = molecular target: extracellular domain of human LEPR, GPI-anchored, on HEK293/hLEPR-GPI cells (human) (UniProt P48357); test: FACS, secondary antibody alone on HEK293/hLEPR-GPI cells, no Leptin
[4] = molecular target: mutant human LEPR (Y1141F) on HEK293.STAT3.Luc.GP130.hLEPR (Y1141F) cells (human) (UniProt P48357); test: cell-based or functional assay
[5] = molecular target: wild-type human GP130 on HEK293.STAT3.Luc.GP130 reporter cells (human) (UniProt P40189); test: cell-based or functional assay
[6] = molecular target: extracellular domain of human LEPR, GPI-anchored, on HEK293/hLEPR-GPI cells (human) (UniProt P48357); test: FACS, 200 nM antibody on HEK293/hLEPR-GPI cells, no Leptin
[7] = molecular target: full length human GP130 (L2V natural variant) on HEK293/Stat3-luc/gp130-2X Sort cells (human) (UniProt P40189); test: FACS, 200 nM antibody on HEK293/gp130 2X Sort cells
[8] = molecular target: extracellular domain of human LEPR, GPI-anchored, on HEK293/hLEPR-GPI cells (human) (UniProt P48357); test: FACS, 200 nM antibody on HEK293/hLEPR-GPI cells, 1 µM Leptin
[9] = molecular target: gp130 expressed endogenously on IMR-32/STAT3-Luc cells (human) (UniProt P40189); test: cell-based or functional assay
gp130 expressed endogenously on IMR-32/STAT3-Luc cells (human), sequence (P40189 23-918): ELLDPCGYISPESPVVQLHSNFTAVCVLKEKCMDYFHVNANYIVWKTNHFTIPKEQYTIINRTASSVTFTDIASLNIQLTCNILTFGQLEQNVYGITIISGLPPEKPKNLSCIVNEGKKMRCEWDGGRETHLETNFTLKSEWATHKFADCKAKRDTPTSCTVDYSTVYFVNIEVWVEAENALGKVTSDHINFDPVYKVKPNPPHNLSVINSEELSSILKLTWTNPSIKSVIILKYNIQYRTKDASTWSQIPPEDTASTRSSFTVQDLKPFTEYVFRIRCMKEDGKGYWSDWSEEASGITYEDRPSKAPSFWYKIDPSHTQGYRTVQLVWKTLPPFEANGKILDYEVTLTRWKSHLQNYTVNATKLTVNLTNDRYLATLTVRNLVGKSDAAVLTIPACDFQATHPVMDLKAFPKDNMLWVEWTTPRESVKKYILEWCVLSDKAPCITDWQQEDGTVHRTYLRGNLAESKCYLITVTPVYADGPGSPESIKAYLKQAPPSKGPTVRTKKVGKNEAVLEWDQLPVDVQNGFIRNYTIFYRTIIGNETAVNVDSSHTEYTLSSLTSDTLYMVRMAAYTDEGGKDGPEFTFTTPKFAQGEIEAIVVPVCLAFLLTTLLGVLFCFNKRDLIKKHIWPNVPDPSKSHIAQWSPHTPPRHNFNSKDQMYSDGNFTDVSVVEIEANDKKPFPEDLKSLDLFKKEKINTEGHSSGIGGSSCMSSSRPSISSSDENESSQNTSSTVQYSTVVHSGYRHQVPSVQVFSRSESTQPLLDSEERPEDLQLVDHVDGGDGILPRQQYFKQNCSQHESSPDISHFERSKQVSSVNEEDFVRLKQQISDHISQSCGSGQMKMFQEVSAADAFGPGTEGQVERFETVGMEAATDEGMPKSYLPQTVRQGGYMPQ

mutant human LEPR (Y1141F) on HEK293.STAT3.Luc.GP130.hLEPR (Y1141F) cells (human), sequence (P48357 22-1165 Y1141F): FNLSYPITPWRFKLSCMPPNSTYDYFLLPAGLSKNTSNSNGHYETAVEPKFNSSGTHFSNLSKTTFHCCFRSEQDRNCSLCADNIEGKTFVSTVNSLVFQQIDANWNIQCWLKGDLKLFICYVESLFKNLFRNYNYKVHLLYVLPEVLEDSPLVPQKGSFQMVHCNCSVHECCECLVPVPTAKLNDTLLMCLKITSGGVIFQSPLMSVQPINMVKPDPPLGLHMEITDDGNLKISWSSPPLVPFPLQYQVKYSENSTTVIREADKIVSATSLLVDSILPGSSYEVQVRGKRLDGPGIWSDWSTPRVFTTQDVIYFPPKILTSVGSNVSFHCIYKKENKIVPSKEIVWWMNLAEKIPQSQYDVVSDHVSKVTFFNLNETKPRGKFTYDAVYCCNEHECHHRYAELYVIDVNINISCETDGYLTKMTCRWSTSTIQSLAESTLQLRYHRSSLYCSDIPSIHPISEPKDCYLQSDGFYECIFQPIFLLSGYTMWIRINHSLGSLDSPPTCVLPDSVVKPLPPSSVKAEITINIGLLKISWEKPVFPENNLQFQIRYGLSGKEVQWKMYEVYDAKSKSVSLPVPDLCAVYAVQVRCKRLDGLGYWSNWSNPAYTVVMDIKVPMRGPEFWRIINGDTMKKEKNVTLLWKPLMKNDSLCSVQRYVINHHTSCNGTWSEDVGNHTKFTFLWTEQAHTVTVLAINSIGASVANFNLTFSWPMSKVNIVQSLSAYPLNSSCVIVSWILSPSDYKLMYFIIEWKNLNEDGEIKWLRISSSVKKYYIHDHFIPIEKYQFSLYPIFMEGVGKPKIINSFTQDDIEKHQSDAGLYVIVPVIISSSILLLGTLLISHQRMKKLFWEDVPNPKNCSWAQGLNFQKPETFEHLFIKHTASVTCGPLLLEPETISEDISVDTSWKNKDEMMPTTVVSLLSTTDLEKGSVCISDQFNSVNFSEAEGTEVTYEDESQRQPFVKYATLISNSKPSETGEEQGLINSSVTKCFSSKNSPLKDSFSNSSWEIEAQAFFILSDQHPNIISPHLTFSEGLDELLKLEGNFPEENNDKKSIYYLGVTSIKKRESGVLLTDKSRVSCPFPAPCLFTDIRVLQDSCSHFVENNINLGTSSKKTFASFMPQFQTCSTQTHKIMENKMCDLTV
wild-type human GP130 on HEK293.STAT3.Luc.GP130 reporter cells (human), sequence (P40189 23-918): as the sequence (P40189 23-918) above
extracellular domain of human LEPR, GPI-anchored, on HEK293/hLEPR-GPI cells (human), sequence (P48357 22-839 limits assumed): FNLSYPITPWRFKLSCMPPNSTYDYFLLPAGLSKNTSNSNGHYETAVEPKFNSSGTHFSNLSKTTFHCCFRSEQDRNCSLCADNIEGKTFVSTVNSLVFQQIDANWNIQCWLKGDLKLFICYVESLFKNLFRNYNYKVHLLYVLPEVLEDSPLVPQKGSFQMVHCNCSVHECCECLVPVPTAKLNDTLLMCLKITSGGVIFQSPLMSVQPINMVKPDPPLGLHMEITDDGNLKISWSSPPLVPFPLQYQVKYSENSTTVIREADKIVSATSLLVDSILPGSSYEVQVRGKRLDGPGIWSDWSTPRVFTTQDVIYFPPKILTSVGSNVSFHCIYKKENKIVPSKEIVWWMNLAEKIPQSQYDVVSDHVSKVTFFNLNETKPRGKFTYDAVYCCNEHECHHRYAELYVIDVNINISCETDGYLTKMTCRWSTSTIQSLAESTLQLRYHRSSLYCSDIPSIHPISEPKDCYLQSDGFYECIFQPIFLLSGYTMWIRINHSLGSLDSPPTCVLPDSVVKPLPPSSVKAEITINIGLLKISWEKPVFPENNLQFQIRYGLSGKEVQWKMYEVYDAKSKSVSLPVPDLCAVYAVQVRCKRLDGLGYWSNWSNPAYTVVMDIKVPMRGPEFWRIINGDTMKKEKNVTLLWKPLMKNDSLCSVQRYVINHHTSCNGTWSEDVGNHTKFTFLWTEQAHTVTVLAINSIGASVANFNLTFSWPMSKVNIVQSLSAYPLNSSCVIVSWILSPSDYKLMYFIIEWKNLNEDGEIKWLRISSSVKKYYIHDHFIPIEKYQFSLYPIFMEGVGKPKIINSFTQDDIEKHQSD

- Binding Ratio, normalized to unstained sample (FL4-A) [1]: 2 fold
- Binding Ratio, normalized to unstained sample (FL4-A) [2]: 1 fold
- Binding Ratio, normalized to unstained sample (FL4-A) [3]: 3 fold
Substance: Alexa Fluor-647 conjugated secondary antibody (Jackson ImmunoResearch Laboratories Inc., #109-607-003)

- Assay Buffer, % activity [4]: 0%
- RLU, Assay Buffer (no soluble protein) [4]: 12200 RLU and 12100 RLU
- Assay Buffer, % activity [5]: 0%
- RLU, Assay Buffer (no soluble protein) [5]: 12200 RLU and 12100 RLU
- Binding Ratio, normalized to unstained sample (FL4-A) [6]: 3 fold
- Binding Ratio, normalized to unstained sample (FL4-A) [7]: 2 fold
- Binding Ratio, normalized to unstained sample (FL4-A) [8]: 3 fold
Substance: Isotype Control (antibody)

- EC50 (M), STAT3-luciferase activation of HEK293.STAT3.Luc.GP130.hLEPR (Y1141F) cells [5]: 5.92e-10 M
- EC50 (M), STAT3-luciferase activation of HEK293.STAT3.Luc.GP130.hLEPR (a) cells [5]: 1.21e-10 M
- Percentage activation as compared to hOSM [5]: 100%
- Percentage maximum activation as compared to hOSM [5]: 100%
Substance: human OSM (R&D Systems, #295-OM/CF) (from UniProt P13725 26-221) (ligand)

- EC50 of activation of IMR-32/STAT3-luc cells (STAT3-luciferase) [9]: 0.054 nM
Substance: human Oncostatin M (from UniProt P13725 26-221) (ligand)

Source: patent publication US20240158497A1
